Laboratory results as given in article PMC3477164, “Improved eIF4E Binding Peptides by Phage Display Guided Design: Plasticity of Interacting Surfaces Yield Collective Effects” (PLoS ONE, 2012).
Ends that are not written are not given here.

B1: eIF4G1 wild type peptide (peptide)
peptide: KKRYDREFLLGF
notes: also called eIF4G1-WT; eIF4G1 peptide; source: synthetic peptide (Mimotopes), HPLC purified to >90%
B2: eIF4G1-D5P peptide (peptide)
peptide: KKRYPREFLLGF
notes: eIF4G1 peptide with D5P; source: synthetic peptide (Mimotopes), HPLC purified to >90%
B3: PHAGESOL-Q8F/L12F peptide (peptide)
peptide: KKRYSRDFLVAF
notes: PHAGESOL with Q8F and L12F; source: synthetic peptide (Mimotopes), HPLC purified to >90%
B4: VL-PHAGESOL-L12F peptide (peptide)
peptide: KKRYSRDQLLAF
notes: PHAGESOL with V10L and L12F; source: synthetic peptide (Mimotopes), HPLC purified to >90%
B5: eIF4G1-G11A peptide (peptide)
peptide: KKRYDREFLLAF
notes: eIF4G1 peptide with G11A; source: synthetic peptide (Mimotopes), HPLC purified to >90%
B6: eIF4G1-OPT peptide (peptide)
peptide: KKRYSREFLLAF
notes: eIF4G1 peptide with D5 changed to S and G11 changed to A; source: synthetic peptide (Mimotopes), HPLC purified to >90%
B7: PHAGESOL-L12F peptide (peptide)
peptide: KKRYSRDQLVAF
notes: PHAGESOL with L12F; source: synthetic peptide (Mimotopes), HPLC purified to >90%
B8: VL-PHAGESOL-Q8F/L12F peptide (peptide)
peptide: KKRYSRDFLLAF
notes: PHAGESOL with V10L, Q8F and L12F; source: synthetic peptide (Mimotopes), HPLC purified to >90%
B9: eIF4G1-E7D peptide (peptide)
peptide: KKRYDRDFLLGF
notes: eIF4G1 peptide with E7D; also called E7D mutant peptide; source: synthetic peptide (Mimotopes), HPLC purified to >90%
B10: eIF4G1-D5G peptide (peptide)
peptide: KKRYGREFLLGF
notes: eIF4G1 peptide with D5G; source: synthetic peptide (Mimotopes), HPLC purified to >90%
B11: PHAGESOL peptide (peptide)
peptide: KKRYSRDQLVAL
notes: phage display selected 12-mer … with its N-terminal SLH changed to KKR of the eIF4G1 peptide; source: synthetic peptide (Mimotopes), HPLC purified to >90%
B12: VL-PHAGESOL peptide (peptide)
peptide: KKRYSRDQLLAL
notes: PHAGESOL with V10L; also called PHAGESOL V10L; source: synthetic peptide (Mimotopes), HPLC purified to >90%
B13: eIF4G1-L10V peptide (peptide)
peptide: KKRYDREFLVGF
notes: eIF4G1 peptide with L10V; source: synthetic peptide (Mimotopes), HPLC purified to >90%
B14: eIF4G1-F8Q peptide (peptide)
peptide: KKRYDREQLLGF
notes: eIF4G1 peptide with F8Q; also called eIF4G-F/Q; source: synthetic peptide (Mimotopes), HPLC purified to >90%
B15: PHAGESOL-Q8F peptide (peptide)
peptide: KKRYSRDFLVAL
notes: PHAGESOL with Q8F; source: synthetic peptide (Mimotopes), HPLC purified to >90%
B16: eIF4G1-F12L peptide (peptide)
peptide: KKRYDREFLLGL
notes: eIF4G1 peptide with F12L; also called F12L mutant peptide; source: synthetic peptide (Mimotopes), HPLC purified to >90%
B17: eIF4G1-D5S peptide (peptide)
peptide: KKRYSREFLLGF
notes: eIF4G1 peptide with D5S; also called eIF4G-D5S; source: synthetic peptide (Mimotopes), HPLC purified to >90%
B18: eIF4G1-D5T peptide (peptide)
peptide: KKRYTREFLLGF
notes: eIF4G1 peptide with D5T; source: synthetic peptide (Mimotopes), HPLC purified to >90%
B19: eIF4G1-D5N peptide (peptide)
peptide: KKRYNREFLLGF
notes: eIF4G1 peptide with D5N; source: synthetic peptide (Mimotopes), HPLC purified to >90%
B20: eIF4G1-D5C peptide (peptide)
peptide: KKRYCREFLLGF
notes: eIF4G1 peptide with D5C; source: synthetic peptide (Mimotopes), HPLC purified to >90%
B21: eIF4G1-QL peptide (peptide)
peptide: KKRYDREQLLGL
notes: eIF4G1 peptide with F8Q and F12L; also called eIF4G1_F8Q/F12L; source: synthetic peptide (Mimotopes), HPLC purified to >90%
B22: eIF4G1-D5E peptide (peptide)
peptide: KKRYEREFLLGF
notes: eIF4G1 peptide with D5E; also called eIF4G-D5E; source: synthetic peptide (Mimotopes), HPLC purified to >90%
B23: PHAGESOL-D7E peptide (peptide)
peptide: KKRYSREQLVAL
notes: PHAGESOL with D7E; source: synthetic peptide (Mimotopes), HPLC purified to >90%
B24: VL-PHAGESOL-Q8F peptide (peptide)
peptide: KKRYSRDFLLAL
notes: PHAGESOL with V10L and Q8F; source: synthetic peptide (Mimotopes), HPLC purified to >90%

What was measured:
[1] = Solubility of the peptide as observed on handling; assay type: physicochemical; conditions: qualitative observation
[2] = molecular target: T1, eIF4E (Homo sapiens, UniProt P06730); experiment: Fluorescence based thermal shift (thermal stability) assay, Sypro Red; assay type: binding; conditions: shift of eIF4E Tm, 10 µM eIF4E, 100 µM peptide, PBS, 20 to 90°C at 1°C/min, Ex/Em 533/640 nm
T1 construct: Full-length human eIF4E was expressed and purified as described previously; made in house
T1 sequence (P06730 whole entry): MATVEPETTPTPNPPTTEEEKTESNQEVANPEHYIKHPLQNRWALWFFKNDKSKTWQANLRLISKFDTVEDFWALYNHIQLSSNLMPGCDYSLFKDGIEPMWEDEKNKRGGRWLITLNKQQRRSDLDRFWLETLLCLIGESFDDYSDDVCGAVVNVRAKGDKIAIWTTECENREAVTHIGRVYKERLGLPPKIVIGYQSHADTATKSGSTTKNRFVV
Method: A fluorescence based thermal shift assay was used to screen and rank the rationally designed eIF4E binding derivative peptides. The fluorescent dye Sypro Red (Invitrogen) was used to monitor thermal denaturation of eIF4E. Binding of the dye molecule to eIF4E, as it unfolds due to thermal denaturation, results in a sharp increase in the fluorescence intensity. The midpoint of this transition is termed the Tm. The thermal shift assay was conducted in a LightCycler (Roche). Protein samples studied were made up to a total volume of 50 µl in PBS (Phosphate Buffered Saline) with Sypro Red, (Invitrogen, 5000× DMSO stock) at a 3.125× concentration. The final protein concentration was 10 µM. Protein samples were incubated with derivative peptides at a concentration of 100 µM. […] The fluorescence intensity was measured with Ex/Em:533/640 nm.
The fluorescence data against temperature derived from the LightCycler were fitted to Eq. (1) to obtain ΔHu, ΔCpu, and Tm by nonlinear regression using the program Prism 4.0, Graphpad: [drawing 1] (1) where Ft is the fluorescence intensity at temperature T; Tm is the midpoint temperature of the protein-unfolding transition, Fpre and Fpost are the pretransitional and posttransitional fluorescence intensities, respectively, R is the gas constant, ΔHu is the enthalpy of protein unfolding, and ΔCpu is the heat capacity change on protein unfolding. […]

[3] = molecular target: T2, Eukaryotic initiation factor 4E (eIF4E), full-length human (human, UniProt P06730 1-217); experiment: fluorescence based thermal shift assay; 10 uM eIF4E with 100 uM peptide in PBS, Sypro Red, heated from 20 to 90 °C at 1 °C/min; Kd estimated from the Tm shift (enthalpy of binding taken to be -5 kcal/mol); conditions: both partners purified
T2 construct: eIF4E, human, full length
T2 sequence (P06730 whole entry): as above

[4] = molecular target: T2, Eukaryotic initiation factor 4E …; experiment: SPR; eIF4E amine coupled to a CM5 chip (about 1000 RU, m7GTP present at immobilisation), peptides injected; 10 mM Hepes pH 7.6, 0.15 M NaCl, 1 mM DTT, 0.1% Tween20, 3% DMSO; Biacore T100; Kd from the equilibrium responses (Keq), 1:1 model, three titrations; conditions: both partners purified
[5] = molecular target: T2, Eukaryotic initiation factor 4E …; experiment: SPR; eIF4E amine coupled to a CM5 chip (about 1000 RU, m7GTP present at immobilisation), peptides injected; 10 mM Hepes pH 7.6, 0.15 M NaCl, 1 mM DTT, 0.1% Tween20, 3% DMSO; Biacore T100; Kd from the association and dissociation phases (Kkin), 1:1 model, three titrations; conditions: both partners purified
[6] = molecular target: T2, Eukaryotic initiation factor 4E …; experiment: SPR; eIF4E amine coupled to a CM5 chip (about 1000 RU, m7GTP present at immobilisation), peptides injected; 10 mM Hepes pH 7.6, 0.15 M NaCl, 1 mM DTT, 0.1% Tween20, 3% DMSO; Biacore T100; Kd from the equilibrium responses (Keq), 1:1 model, three titrations; conditions: both partners purified; remark: listed apart in the source
[7] = molecular target: T2, Eukaryotic initiation factor 4E …; experiment: SPR; eIF4E amine coupled to a CM5 chip (about 1000 RU, m7GTP present at immobilisation), peptides injected; 10 mM Hepes pH 7.6, 0.15 M NaCl, 1 mM DTT, 0.1% Tween20, 3% DMSO; Biacore T100; Kd from the association and dissociation phases (Kkin), 1:1 model, three titrations; conditions: both partners purified; remark: listed apart in the source
[8] = molecular target: T2, Eukaryotic initiation factor 4E …; experiment: SPR; eIF4E amine coupled to a CM5 chip (about 1000 RU, m7GTP present at immobilisation), peptides injected; 10 mM Hepes pH 7.6, 0.15 M NaCl, 1 mM DTT, 0.1% Tween20, 3% DMSO; Biacore T100; Kd from the equilibrium responses (Keq), 1:1 model, three titrations; conditions: both partners purified; remark: listed apart in the source
[9] = molecular target: T2, Eukaryotic initiation factor 4E …; experiment: SPR; eIF4E amine coupled to a CM5 chip (about 1000 RU, m7GTP present at immobilisation), peptides injected; 10 mM Hepes pH 7.6, 0.15 M NaCl, 1 mM DTT, 0.1% Tween20, 3% DMSO; Biacore T100; Kd from the association and dissociation phases (Kkin), 1:1 model, three titrations; conditions: both partners purified; remark: listed apart in the source

Molecule	Kd [3]	thermal shift (Tm) [3]	Kd [4]	Kd [5]	Kd [8]	Kd [9]	further results
SLHYSRDQLVAL [PHAGE, phage display selected 12mer […]]							solubility of the peptide (in words) [1]: insoluble; Thermal Shift (Tm, °C) [2]: no observable shift
KKRYSRDQLVAL [PHAGESOL]							solubility of the peptide (in words) [1]: soluble
B1	460 nM	7.03 ± 0.1 °C	580 ± 16.7 nM	524 ± 61.6 nM			
B2							Kd [6]: 684 ± 13.6 nM; Kd [7]: 717 ± 31.2 nM
B3					348 ± 20.9 nM	374 ± 33.1 nM	
B4					43.21 ± 0.34 nM	40.7 ± 3.8 nM	
B5	200 nM	8.13 ± 0.12 °C	309 ± 11.6 nM	282 ± 17.6 nM			
B6					52.2 ± 1.4 nM	59.4 ± 2.9 nM	
B7					112 ± 2.7 nM	120 ± 5.3 nM	
B8					69.9 ± 6.4 nM	62 ± 3.5 nM	
B9	520 nM	6.87 ± 0.18 °C	784 ± 21.5 nM	759 ± 70.7 nM			
B10							Kd [6]: 468 ± 28.1 nM; Kd [7]: 440 ± 26 nM
B11	77 nM	9.83 ± 0.1 °C	76.7 ± 3.4 nM	77.1 ± 9 nM			
B12					37.2 ± 1.6 nM	34.7 ± 1.2 nM	
B13	4400 nM	3.9 ± 0.03 °C	4540 ± 622 nM	2680 ± 444 nM			
B14	2000 nM	5 ± 0.03 °C	1630 ± 75.1 nM	1780 ± 406 nM			
B15					196 ± 6.3 nM	184 ± 15.4 nM	
B16	520 nM	6.87 ± 0.12 °C	761 ± 63.8 nM	718 ± 98 nM			
B17	100 nM	8.97 ± 0.07 °C	103 ± 2.3 nM	99.9 ± 6.2 nM			
B18							Kd [6]: 110 ± 1.8 nM; Kd [7]: 105 ± 7.2 nM
B19							Kd [6]: 444.5 ± 1.6 nM; Kd [7]: 388.9 ± 1.6 nM
B20							Kd [6]: 436 ± 6.4 nM; Kd [7]: 458 ± 19.8 nM
B21					1090 ± 49.9 nM	1090 ± 106 nM	
B22							Kd [6]: 749 ± 57.7 nM; Kd [7]: 692 ± 31.2 nM
B23					51.6 ± 1.8 nM	52.9 ± 2.1 nM	
B24					49.6 ± 4.3 nM	47.1 ± 1.5 nM	
